Ends that are not written are not given here.
T1: p75^NTR (Mus musculus, UniProt Q9Z0W1)
T1 construct: from tissue; host or cells: living mice (heart and other tissues) after transverse aortic constriction
T1 sequence (Q9Z0W1 32-427): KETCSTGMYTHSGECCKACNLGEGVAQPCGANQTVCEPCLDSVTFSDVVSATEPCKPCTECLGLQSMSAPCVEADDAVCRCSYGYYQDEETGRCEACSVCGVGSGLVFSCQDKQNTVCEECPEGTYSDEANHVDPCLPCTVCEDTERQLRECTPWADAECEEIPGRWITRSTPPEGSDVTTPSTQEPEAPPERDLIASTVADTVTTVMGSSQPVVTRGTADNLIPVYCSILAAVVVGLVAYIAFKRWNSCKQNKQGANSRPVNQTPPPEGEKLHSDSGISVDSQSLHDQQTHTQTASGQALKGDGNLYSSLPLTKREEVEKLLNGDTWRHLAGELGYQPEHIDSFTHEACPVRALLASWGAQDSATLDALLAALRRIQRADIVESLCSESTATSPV

B1: proBDNF: uncleaved (immature) neurotrophin, pro-brain derived neurotrophic factor, activates p75^NTR (protein, UniProt P23560 19-247, looked up)
pro-form: APMKEANIRGQGGLAYPGVRTHGTLESVNGPKAGSRGLTSLADTFEHVIEELLDEDQKVRPNEENNKDADLYTSRVMLSSQVPLEPPLLFLLEEYKNYLDAANMSMRVRRHSDPARRGELSVCDSISEWVTAADKKTAVDMSGGTVTVLEKVPVSKGQLKQYFYETKCNPMGYTKEGCRGIDKRHWNSQCRTTQSYVRALTMDSKKRIGWRFIRIDTSCVCTLTIKRGR
modifications: pro-form

Tests used:
p75^NTR = molecular target: T1, p75^NTR; assay: Transverse aortic constriction (TAC) pressure overload/heart failure with chronic P75NTR antagonist infusion, echocardiography; assay type: in vivo; conditions: TAC mice; chronic infusion for 5 weeks, instituted 1 week after TAC; 200 μg/kg/day s.c. osmotic pump; FIG. 3
Procedure: Transverse aortic constriction (TAC) was performed following a previously reported protocol (J. Clin. Invest., 2005; 115(5):1221-31; Circ. Res., 2010; 106(1):193-202; Antioxid Redox Signal 2014; 20(2):267-80). After induction of anesthesia and intubation, mice were placed on a volume ventilator (120 breaths/min, 1.2 ml/g/min) and anesthesia was maintained with […] isofluorane. The aortic arch was isolated and tied against a 27-gauge needle, resulting in a 65-70% constriction after the removal of the needle. The chest and skin were closed and animals extubated and allowed to fully recover. Sham-operated mice underwent the same operation except that after the aortic arch was isolated, no ligature was placed. The ALZET osmotic pump (Model 2004) with P75^NTR peptidic antagonist (200 μg/kg/day) or saline vehicle was placed subcutaneously one week after TAC. P75^NTR antagonistic cyclic peptide (CATDIKGAEC) (SEQ ID NO: 1) was synthesized at the Johns Hopkins Synthesis and Sequencing Facility. […]
In vivo cardiac morphology and function were assessed by serial M-mode echocardiography (Acuson Sequioa C256, 13 MHz transducer, Siemens, Pa.) performed in conscious mice. […] LV percent FS, EF and LV mass were calculated as described previously. […]

control mouse hearts = assay: LV function and coronary tone in Langendorff-perfused control mouse hearts infused with proBDNF
Text: (§1) After anesthesia, hearts were harvested and the aorta cannulated and retrogradely perfused with Krebs-Henseleit (KH) buffer warmed and gassed with 95% O2 and 5% CO2, as reported previously (Antioxid. Redox Signal, 2013; 19(11):1185-97). Briefly, hearts were paced at 600 bpm (10 Hz, 4 ms duration, 4 V) and LV function monitored with a water-filled balloon, connected to a pressure transducer coupled to a continuous data recording system. After stabilization, in addition to LV function parameters, baseline values of coronary perfusion pressure (CPP) were obtained through a side-arm of the aortic cannula connected to a separate pressure transducer.

[1] = system: isolated healthy mouse myocytes; assay: Sarcomere shortening and whole Ca^2+ transient in isolated healthy mouse myocytes; assay type: cell-based; conditions: directly applied to isolated healthy mouse myocytes
Procedure: Isolation of rat and mouse ventricular myocytes was carried out as previously described and approved by the Animal Care and Use Committee of Johns Hopkins University. Mice were anesthetized with intraperitoneal pentobarbital sodium (100 mg/kg). To assess for sarcomere shortening, cells were imaged using field stimulation (0.5 Hz) in an inverted fluorescence microscope (Diaphot 200; Nikon, Inc). Sarcomere length was measured by real-time Fourier transform (IonOptix MyoCam, CCCD100M). Twitch amplitude is expressed as a percentage of resting cell length. Twitch kinetics was quantified by measuring the time to peak shortening and the time from peak shortening to 50% relaxation. For whole Ca^2+ transient measurements, myocytes were loaded with the Ca^2+ indicator fluo-4/A M (Molecular Probes, 20 μM for 30 min) and Ca^2+ transients were measured under field-stimulation (0.5 Hz) in perfusion solution by confocal laser scanning microscope (LSM510, Carl Zeiss). Digital image analysis used customer-designed programs coded in Interactive Data Language (IDL).

[2] = system: isolated p75^NTR-/- whole hearts; assay: LV function and coronary tone in Langendorff-perfused isolated p75^NTR-/- whole hearts infused with proBDNF; parameters: species or system mouse; conditions: hearts of mice lacking p75^NTR; FIG. 7
Text: as §1

| LV ejection fraction (p75^NTR) | Molecule | coronary perfusion pressure (CPP), vasoconstriction (control mouse hearts; FIG. 4A) | overall left-ventricle (LV) function: relaxation (control mouse hearts; FIG. 4F) | overall left-ventricle (LV) function: contractility (control mouse hearts; FIGS. 4B, D and E) | amplitude of the whole Ca^2+ transient ([1]; FIGS. 5 and 6 lower panels) | diastolic Ca^2+ levels ([1]; FIGS. 5 and 6 lower panels) | contractility (extent of sarcomere shortening) ([1]; FIGS. 5 and 6 upper panels) | LV function [2] | coronary vascular tone [2] |
| --- | --- | --- | --- | --- | --- | --- | --- | --- | --- |
| preserved | CATDIKGAEC (also: cyclic) | – | – | – | – | – | – | – | – |
| – | B1 | markedly higher | reducing | reducing | reduces | rise | reduces | does not alter | does not alter |
